Conditions in all cases: both partners purified
For one assay, the target named is T1, MLL4_(PHD2/3) D285K (human, UniProt O14686 227-324, D285K).
T1 construct: human MLL4 (KMT2D), aa 227-324; source: E. coli BL21-CodonPlus, purified as WT
T1 sequence (looked up): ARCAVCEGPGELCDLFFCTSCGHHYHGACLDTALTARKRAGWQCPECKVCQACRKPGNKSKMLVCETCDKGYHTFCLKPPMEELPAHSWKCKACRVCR
In words: not stated; fluorescence spectroscopy or NMR: the legends of Fig. 3c and Fig. 4b say that values marked (a) are from NMR and the others from fluorescence; the text does not tell which for these pairs.

The next assay concerns the target T2, MLL3_(PHD2/3) D372K (human, UniProt Q8NEZ4 342-439, D372K).
T2 construct: human MLL3 (KMT2C), aa 342-439; source: E. coli BL21-CodonPlus, purified as WT
T2 sequence (looked up): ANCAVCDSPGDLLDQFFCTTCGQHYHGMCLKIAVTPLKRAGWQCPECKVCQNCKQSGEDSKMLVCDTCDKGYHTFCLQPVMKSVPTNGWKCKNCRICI
The description is as above.

Assay [1] has as its target T3, PHD2 and PHD3 fingers of human MLL3 (aa 342-439) (human, UniProt Q8NEZ4 342-439).
T3 construct: PHD2 and PHD3 fingers of human MLL3 (KMT2C), aa 342-439; 15N-labelled for NMR titrations; also used unlabelled as the titrant against MLL3 PHD4; also called MLL3_(PHD2/3); MLL3 PHD2/3; source: E. coli BL21-CodonPlus, purified (glutathione agarose, PreScission cleavage; unlabeled proteins also SEC)
T3 sequence (looked up): T2 sequence (looked up) with K31D
In words: other fluorescence titration; tryptophan fluorescence, 25 °C; 1.0 µM MLL4 PHD2/3 or MLL3 PHD2/3 with increasing peptide; excitation 295 nm; 20 mM Tris pH 7.2, 150 mM NaCl, 1 mM TCEP, 0.02% Tween20; average of three measurements.

The target of another assay is T4, MLL4_(PHD2/3) D257K (human, UniProt O14686 227-324, D257K).
T4 construct: human MLL4 (KMT2D), aa 227-324; source: E. coli BL21-CodonPlus, purified as WT
T4 sequence (looked up): T1 sequence (looked up) with D31K, K59D
The assay is described as above.

In the next assay the target is T5, MLL4_(PHD2/3) E272K (human, UniProt O14686 227-324, E272K).
T5 construct: human MLL4 (KMT2D), aa 227-324; E272K is said to be found in cancers (Cosmic); source: E. coli BL21-CodonPlus, purified as WT
T5 sequence (looked up): T1 sequence (looked up) with E46K, K59D
Described as above.

A further assay deals with T6, MLL4_(PHD2/3) E292K (human, UniProt O14686 227-324, E292K).
T6 construct: human MLL4 (KMT2D), aa 227-324; E292K is said to be found in cancers (Cosmic); source: E. coli BL21-CodonPlus, purified as WT
T6 sequence (looked up): T1 sequence (looked up) with K59D, E66K
Described as above.

The target of another assay is T7, MLL4_(PHD2/3) S286A (human, UniProt O14686 227-324, S286A).
T7 construct: human MLL4 (KMT2D), aa 227-324; source: E. coli BL21-CodonPlus, purified as WT
T7 sequence (looked up): T1 sequence (looked up) with K59D, S60A
Described as above.

For another assay, the target named is T8, MLL4_(PHD2/3) S314A (human, UniProt O14686 227-324, S314A).
T8 construct: human MLL4 (KMT2D), aa 227-324; source: E. coli BL21-CodonPlus, purified as WT
T8 sequence (looked up): T1 sequence (looked up) with K59D, S88A
The assay is described as above.

For assay [2], the target named is T9, PHD2 and PHD3 fingers of human MLL4 (aa 227-324) (human, UniProt O14686 227-324).
T9 construct: PHD2 and PHD3 fingers of human MLL4 (KMT2D), aa 227-324; also called MLL4_(PHD2/3); MLL4 PHD2/3; source: E. coli BL21-CodonPlus, purified (glutathione agarose, PreScission cleavage; unlabeled proteins also SEC)
T9 sequence (looked up): T1 sequence (looked up) with K59D
Described as above.

One molecule from article PMC11161652, “ASXLs binding to the PHD2/3 fingers of MLL4 provides a mechanism for the recruitment of BAP1 to active enhancers” (Nature Communications, 2024) can be followed below.

Substitutions are numbered along the chain they refer to.

B1: ASXL2 peptide (residues 650-670 of ASXL2) (peptide, UniProt Q76L83 650-670, looked up)
peptide: NRTGARTLADIKAKAQLVKAQ
notes: also called ASXL2 (aa 650-670); MBH of ASXL2; source: synthetic peptide (SynPeptide)
By Kd is commonly meant the concentration at which binding is half-saturated. Read a high Kd as lower affinity. On to B1, for which the dissociation constant (Kd) with MLL4_(PHD2/3) D285K was roughly 1700 µM; in [1], 1.4 µM; with MLL4_(PHD2/3) D257K, 27 µM; in the assay with MLL4_(PHD2/3) E272K, 28 µM; with MLL4_(PHD2/3) S286A, 0.8 µM; with MLL4_(PHD2/3) S314A, 0.8 µM. In [2], this molecule yielded a Kd of 0.7 µM. Moreover, the “fold reduction in binding against wild type MLL3_(PHD2/3)” value with MLL3_(PHD2/3) D372K was roughly 40 fold. Also, the “fold reduction in binding against wild type MLL4_(PHD2/3)” value with MLL4_(PHD2/3) E292K was roughly 14 fold.
